Measurements from US20070248617A1 (published 2007).

Biological target: T1, recombinant human RANK-hFc fusion protein (human, UniProt Q9Y6Q6 30-212, limits assumed)
T1 construct: also called hRANK; not shown: human Fc (hFc)
T1 sequence (looked up): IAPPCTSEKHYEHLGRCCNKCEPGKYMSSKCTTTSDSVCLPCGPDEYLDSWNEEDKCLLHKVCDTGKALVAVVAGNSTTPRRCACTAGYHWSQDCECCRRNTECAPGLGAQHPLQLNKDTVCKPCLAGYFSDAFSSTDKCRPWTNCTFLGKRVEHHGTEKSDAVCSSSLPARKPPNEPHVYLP
Test: ELISA, human RANKL coated at 10 µg/ml, serial dilutions of human RANK-hFc, anti-hFc-HRP detection
Procedure: To test whether the antibodies generated in mice have neutralizing activity, in vitro binding assays for both mouse and human RANKL and their cognate receptors mouse RANK and human RANK were established. ELISA plates were therefore coated with 10 μg/ml of either mouse or human RANKL protein and incubated with serial dilutions of a recombinant mouse RANK-hFc fusion protein or a recombinant human RANK-hFc fusion protein, respectively. Bound protein was detected with a horse raddish peroxidase conjugated anti-hFc antibody. […] Sera of mice immunized with mRANKL(155-174) coupled to Qβcapsid were then tested for their ability to inhibit the binding of mouse and human RANKL protein to their respective receptors. ELISA plates were therefore coated with either mouse or human RANKL protein at a concentration of 10 μg/ml, and co-incubated with serial dilutions of a pool of mouse sera from day 35 and 0.35 nM mouse or human RANK-hFc fusion protein, respectively. Binding of receptor to immobilized RANKL protein was detected with horse raddish peroxidase conjugated anti-hFc antibody.

binding result: binds
B1: human RANKL protein (ligand, UniProt O14788 140-317, looked up)
chain: IRAEKAMVDGSWLDLAKRSKLEAQPFAHLTINATDIPSGSHKVSLSSWYHDRGWAKISNMTFSNGKLIVNQDGFYYLYANICFRHHETSGDLATEYLQLMVYVTKTSIKIPSSHTLMKGGSTKYWSGNSEFHFYSINVGGFFKLRSGEEISIEVSNPSLLDPDQDATYFGAFKVRDID
notes: also called hRANKL
